Data taken from paper PMC4272012 (Nature methods, 2014).

Target: GFPuv (Aequorea victoria, UniProt P42212, 15N-labeled)

| Binder | binding result |
| --- | --- |
| LaG-26 (VHH) VHH: QVQLVESGGGLVQAGASMRLSCAASGITFSLYHWVWFRQAAGREHEFVAGIIRSGGETLSADSVKDRFIISRDDAKNTLYLQMNMLQPEDTATYYCAATHRADWYSSAFREYIFRGQGTQVTVS | binds |
| LaG-2 (VHH) VHH: QVQLVESGGGLVQAGGSLRLSCAASGRTFSNYAMGWFRQAPGKEREFVAAISWTGVSTYYADSVKGRFTISRDNDKNTVYVQMNSLIPEDTAIYYCAAVRARSFSDTYSRVNEYDYWGQGTQVTV | binds |
| LaG-14 (VHH) VHH: QVQLVESGGGLVQAGGSLRLSCAASGRTYSISAMGWFRQAPGKEREFVAGISRSGGTTYYADPVKGRFTISRDNAKNTVYLQMNSLKPEDTAVYYCAARARGWTTFPAREIEYDYWGQGTQVTV | binds |
| LaG-17 (VHH) VHH: DVQLVESGGGLVQAGGSLRLSCAASGRTISMAAMSWFRQAPGKEREFVAGISRSAGSAVHADSVKGRFTISRDNTKNTLYLQMNSLKAEDTAVYYCAVRTSGFFGSIPRTGTAFDYWGQGTQVTVS | binds |
| LaG-16 (VHH) VHH: QVQLVESGGRLVQAGDSLRLSCAASGRTFSTSAMAWFRQAPGREREFVAAITWTVGNTILGDSVKGRFTISRDRAKNTVDLQMDNLEPEDTAVYYCSARSRGYVLSVLRSVDSYDYWGQGTQVTVS | binds |
| LaG-43 (VHH) VHH: DVQLVESGGGLVQPGGSLRLSCEASGGAFSTVAMGWFRQAPGKEREFVGAITWTAGSTYYADSAKGRFTISRDNAKNTVHLQMNSLKPEDTAVYYCAQRVRGFFGPLRTTPSWYEYWGQGTQVTVS | binds |
| LaG-19 (VHH) VHH: QVQLVESGGGLVQAGGSLRLSCAASGPTGAMAWFRQAPGKEREFVGGISRSGTDTYYVDSVKGRFTIDRDNAKNTVYLQMNSLKPEDTAVYYCAARRSQILFTSRTDYEFWGQGTQVTV | binds |
| LaG-41 (VHH) VHH: DVQLVESGGGLVQAGGSLRLSCAASGPTGAMAWFRQAPGKEREFVGGISGSETDTYYVDSVKGRFTVDRDNVKNTVYLQMNSLKPEDTAVYYCAARRRITLFTSRTDYDFWGRGTQVTV | binds |
| LaG-21 (VHH) VHH: QVQLVESGGGLVQAGGSLRLSCAASGPTGAMAWFRQAPGMEREFVGGISGSETDTYYADFVKGRLTVDRDNVKNTVDLQMNSLKPEDTAVYYCAARRRVTLFTSRADYDFWGQGTQVTVS | binds |
| LaG-27 (VHH) VHH: DVQLVESGGGLVQAGGSLRLSCTASGLTISTYNIGWFRQAPGKEREFVGIIIRNGDTTYYADSVKGRFTISRDNAKNTVYLQMNSVKPADAAVYSCGATVRAGAAAEQYNSYIFRGQGTQVTV | binds |
| LaG-9 (VHH) VHH: DVQLVESGGGLVQAGGSLRLSCAASGRTFSTSAMGWFRQAPGKEREFVARITWSAGYTAYSDSVKGRFTISRDKAKNTVYLQMNSLKPEDTAVYYCASRSAGYSSSLTRREDYAYWGQGTQVTVS | binds |
